Reference: the supplement of paper PMC9732359
± gives the uncertainty stated by the source.

Assay: protein stability index of a GFP-peptide fusion (yeast GPS) (PSI 1-4); higher = more stable; sorted into four equal gates, so the index is relative within each strain
How it was run: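 Peptides tiling yeast proteins in 17-residue segments were fused downstream of GFP, with Cherry expressed from the same plasmid. As a pooled library in yeast, mid-log cultures grown in leucine-free medium were sorted into four equal gates by GFP/Cherry fluorescence ratio. Gate plasmids were PCR-amplified and Illumina-sequenced, and barcodes linked reads to strains. Each peptide received a protein stability index equal to the sum of each gate's read frequency times its gate number.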

LALKLELLDFLTSNLSN [YJL039C/NUP192] showed a protein stability index (doa10∆) of 2.55 ± 0.053, a protein stability index (pdr5∆) of 2.26 ± 0.043 and a protein stability index (san1∆) of 2.45 ± 0.049. For the same sequence, the protein stability index (ubr1∆) was 2.65 ± 0.043.
TNNDSNNKNNSITTGND [MED2] gave a protein stability index (doa10∆) of 2.69 ± 0.1, a protein stability index (pdr5∆) of 2.64 ± 0.057 and a protein stability index (san1∆) of 2.7 ± 0.081. For the same sequence, the protein stability index (ubr1∆) was 1.87 ± 0.043.
With NSTTSGGLFGNKVGSTG [YGR119C/NUP57] the protein stability index (doa10∆) was 3.17 ± 0.13, the protein stability index (pdr5∆) was 3.47 ± 0.19 and the protein stability index (san1∆) was 3.21 ± 0.071. It also gave a protein stability index (ubr1∆) of 3.29 ± 0.17.
In the case of EENPIMQTALRRLPEDE [QCR7], the protein stability index (doa10∆) is reported as 3.45 ± 0.28, the protein stability index (pdr5∆) is reported as 3.52 ± 0.28 and the protein stability index (ubr1∆) is reported as 3.39 ± 0.18.
Work on IIKANQLILSDVDPEFY [RET1] yielded a protein stability index (doa10∆) of 1.51 ± 0.094, a protein stability index (pdr5∆) of 1.76 ± 0.081 and a protein stability index (san1∆) of 1.6 ± 0.11. It also gave a protein stability index (ubr1∆) of 1.96 ± 0.081.
Work on TNNTIRYNAKRRNWRRT [RPL39] yielded a protein stability index (pdr5∆) of 3.02 ± 0.22 and a protein stability index (ubr1∆) of 3.58 ± 0.14.
For MLHKVLENKADPLVSLM [RPT6], the protein stability index (doa10∆) was 2.28 ± 0.08, the protein stability index (pdr5∆) was 2.15 ± 0.063 and the protein stability index (san1∆) was 2.71 ± 0.058. For the same sequence, the protein stability index (ubr1∆) was 2.23 ± 0.066.
LSSLKSFAIYSSTIDAP [SRB8] gave a protein stability index (doa10∆) of 1.71 ± 0.038, a protein stability index (pdr5∆) of 1.57 ± 0.034 and a protein stability index (san1∆) of 1.83 ± 0.064. The protein stability index (ubr1∆) was 1.73 ± 0.038.
In the case of LQMDYKDDMKVDDAIEL [PRE9], the protein stability index (doa10∆) is reported as 3.21 ± 0.14, the protein stability index (pdr5∆) is reported as 3.42 ± 0.081 and the protein stability index (san1∆) is reported as 3.21 ± 0.067. The protein stability index (ubr1∆) was 3.51 ± 0.071.
In the case of LQLELTIEDIAVAITRA [RPO31], the protein stability index (doa10∆) is reported as 1.92 ± 0.057, the protein stability index (pdr5∆) is reported as 2.12 ± 0.044 and the protein stability index (san1∆) is reported as 1.97 ± 0.058. It also gave a protein stability index (ubr1∆) of 2.07 ± 0.041.
Work on IDTLLYLMTYPQQPMVK [RET1] yielded a protein stability index (doa10∆) of 1.52 ± 0.097, a protein stability index (pdr5∆) of 2.09 ± 0.12 and a protein stability index (san1∆) of 2.33 ± 0.13. For the same sequence, the protein stability index (ubr1∆) was 1.53 ± 0.056.
Work on EIILDFLQDKVQIKDVN [CSI1] yielded a protein stability index (doa10∆) of 3.12 ± 0.086, a protein stability index (pdr5∆) of 2.83 ± 0.055 and a protein stability index (san1∆) of 2.36 ± 0.076. It also gave a protein stability index (ubr1∆) of 3.17 ± 0.051.
With LYEIILAANYLNIKPLL [SKP1] the protein stability index (doa10∆) was 1.51 ± 0.046, the protein stability index (pdr5∆) was 1.33 ± 0.045 and the protein stability index (san1∆) was 1.28 ± 0.11. For the same sequence, the protein stability index (ubr1∆) was 1.46 ± 0.045.
With GLPVGAIMNCADNSGAR [RPL23A] the protein stability index (doa10∆) was 1.91 ± 0.053, the protein stability index (pdr5∆) was 2.28 ± 0.06 and the protein stability index (san1∆) was 1.63 ± 0.068. The protein stability index (ubr1∆) was 1.83 ± 0.055.
In the case of FFDPKPFDQNLDSNNNN [SWI1], the protein stability index (doa10∆) is reported as 2.98 ± 0.085, the protein stability index (pdr5∆) is reported as 2.83 ± 0.092 and the protein stability index (san1∆) is reported as 3.14 ± 0.048. It also gave a protein stability index (ubr1∆) of 2.88 ± 0.069.
In the case of ESFPDDIPLAKALDNAC [CDC53], the protein stability index (doa10∆) is reported as 2.58 ± 0.07, the protein stability index (pdr5∆) is reported as 2.97 ± 0.058 and the protein stability index (san1∆) is reported as 2.67 ± 0.055. For the same sequence, the protein stability index (ubr1∆) was 2.8 ± 0.045.
In the case of ILFELYKIKGRNNSKSV [SRP72], the protein stability index (doa10∆) is reported as 2.04 ± 0.068, the protein stability index (pdr5∆) is reported as 1.92 ± 0.061 and the protein stability index (san1∆) is reported as 2.75 ± 0.069. The protein stability index (ubr1∆) was 1.76 ± 0.062.
Sequence KLHMGTDDVRLAPELNQ [RPL31A] has a protein stability index (doa10∆) of 3.11 ± 0.12, a protein stability index (pdr5∆) of 3.25 ± 0.083 and a protein stability index (san1∆) of 3.13 ± 0.083. For the same sequence, the protein stability index (ubr1∆) was 3.09 ± 0.052.
LKKSEEIINNKTSSQTS [YMR153W/NUP53] gave a protein stability index (doa10∆) of 3.08 ± 0.12, a protein stability index (pdr5∆) of 3.4 ± 0.15 and a protein stability index (san1∆) of 3.03 ± 0.13. The protein stability index (ubr1∆) was 3.19 ± 0.069.
VTGGKKALVLFVPVPAL [RPS7B] gave a protein stability index (doa10∆) of 1.58 ± 0.061, a protein stability index (pdr5∆) of 2.03 ± 0.1 and a protein stability index (san1∆) of 2.14 ± 0.11. The protein stability index (ubr1∆) was 1.52 ± 0.054.
In the case of DEISPELLSKYKEQIIQ [SNU114], the protein stability index (doa10∆) is reported as 2.44 ± 0.079, the protein stability index (pdr5∆) is reported as 2.57 ± 0.08 and the protein stability index (san1∆) is reported as 2.42 ± 0.079. The protein stability index (ubr1∆) was 2.68 ± 0.075.
VKAQRPITGASLDLIKE [RPL24A] gave a protein stability index (doa10∆) of 2.42 ± 0.062, a protein stability index (pdr5∆) of 2.07 ± 0.049 and a protein stability index (san1∆) of 2.69 ± 0.074. For the same sequence, the protein stability index (ubr1∆) was 2.73 ± 0.05.
In the case of WAMQGISYLQEVQCTST [PCI8], the protein stability index (doa10∆) is reported as 3.32 ± 0.15, the protein stability index (pdr5∆) is reported as 3.06 ± 0.13 and the protein stability index (san1∆) is reported as 2.19 ± 0.16. It also gave a protein stability index (ubr1∆) of 3.02 ± 0.099.
In the case of YDLVILKSGLPLSGLLF [YMR129W/POM152], the protein stability index (doa10∆) is reported as 3.61 ± 0.17, the protein stability index (pdr5∆) is reported as 2.53 ± 0.13 and the protein stability index (san1∆) is reported as 3.51 ± 0.049. The protein stability index (ubr1∆) was 2.11 ± 0.18.
Work on GGQRSLIALSLIMALLQ [SMC2] yielded a protein stability index (doa10∆) of 1.33 ± 0.056, a protein stability index (pdr5∆) of 1.52 ± 0.063 and a protein stability index (san1∆) of 1.73 ± 0.099. It also gave a protein stability index (ubr1∆) of 2.24 ± 0.036.
YKYGYDMPCDVLAKRMA [SCL1] gave a protein stability index (doa10∆) of 2.51 ± 0.067, a protein stability index (pdr5∆) of 2.25 ± 0.049 and a protein stability index (san1∆) of 2.61 ± 0.073. For the same sequence, the protein stability index (ubr1∆) was 2.29 ± 0.058.
